1 substance from patent US20260258152 can be followed below.

For this data set, the target named is activated Factor VIII (FVIIIa) (UniProt P00451).
UniProt P00451, sequence (P00451 other isoform, or with tags, fused parts or gaps): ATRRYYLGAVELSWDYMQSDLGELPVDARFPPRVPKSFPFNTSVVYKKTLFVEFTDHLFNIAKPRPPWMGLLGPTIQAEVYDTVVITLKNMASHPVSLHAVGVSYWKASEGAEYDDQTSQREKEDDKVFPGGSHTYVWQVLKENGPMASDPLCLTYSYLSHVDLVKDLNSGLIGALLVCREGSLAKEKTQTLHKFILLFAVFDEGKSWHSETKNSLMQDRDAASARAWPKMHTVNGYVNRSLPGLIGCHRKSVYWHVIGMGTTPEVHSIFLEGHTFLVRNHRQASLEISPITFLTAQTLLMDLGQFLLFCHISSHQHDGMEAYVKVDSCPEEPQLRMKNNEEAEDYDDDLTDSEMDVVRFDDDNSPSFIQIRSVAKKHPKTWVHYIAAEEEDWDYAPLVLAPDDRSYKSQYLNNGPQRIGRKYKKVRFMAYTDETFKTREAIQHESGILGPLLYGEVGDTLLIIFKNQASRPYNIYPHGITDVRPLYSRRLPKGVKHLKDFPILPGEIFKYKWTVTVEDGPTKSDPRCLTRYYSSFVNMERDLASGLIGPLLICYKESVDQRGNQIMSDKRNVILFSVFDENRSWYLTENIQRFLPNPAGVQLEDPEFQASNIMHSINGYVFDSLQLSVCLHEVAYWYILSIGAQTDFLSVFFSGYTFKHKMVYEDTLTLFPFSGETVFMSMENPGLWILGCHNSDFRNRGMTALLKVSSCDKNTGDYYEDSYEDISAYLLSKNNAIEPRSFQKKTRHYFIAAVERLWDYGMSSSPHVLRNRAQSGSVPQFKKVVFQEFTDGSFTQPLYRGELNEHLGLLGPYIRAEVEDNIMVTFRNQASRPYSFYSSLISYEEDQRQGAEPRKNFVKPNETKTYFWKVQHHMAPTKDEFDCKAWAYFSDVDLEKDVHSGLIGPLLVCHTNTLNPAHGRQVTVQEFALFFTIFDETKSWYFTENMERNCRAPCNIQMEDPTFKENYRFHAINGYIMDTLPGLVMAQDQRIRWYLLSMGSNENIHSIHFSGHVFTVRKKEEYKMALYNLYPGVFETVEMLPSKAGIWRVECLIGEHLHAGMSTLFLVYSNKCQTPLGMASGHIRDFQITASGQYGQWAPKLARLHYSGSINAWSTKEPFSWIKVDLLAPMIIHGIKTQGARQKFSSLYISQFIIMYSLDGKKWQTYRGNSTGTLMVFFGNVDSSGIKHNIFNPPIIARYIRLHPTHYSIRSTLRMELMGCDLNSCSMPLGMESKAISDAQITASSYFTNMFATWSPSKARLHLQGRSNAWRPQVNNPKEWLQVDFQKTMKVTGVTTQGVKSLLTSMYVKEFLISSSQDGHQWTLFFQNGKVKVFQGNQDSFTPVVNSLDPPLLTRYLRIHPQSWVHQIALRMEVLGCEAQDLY

Take “Factor IX G93S (hemophilia B-causing FIX variant)”: the “FIX activity without the FVIIIa-mimetic” value is “only 0.1% and 2% activity without the FVIIIa-mimetic”; the “FIX activity, one-stage aPTT clotting assay with and without 300 nM emicizumab” value was “I397T, E387K, R338P, and G93S all substantially increase their activity with the addition of emicizumab”.
